In general, pKd refers to the Kd on a negative log10 scale, so that one unit is a factor of ten.

pKd: −log10 of the molar value.

In data set [1] the test system is BetI2 (Ruegeria pomeroyi DSS-3). Briefly: MST. The following applies: EMSA: 2 mM EDTA, 20 mM KCl, 0.5 mM DTT, 4% Ficoll-400, pH 8.0, 2 ug poly(dI-dC), 20 uL, protein 0-28 uM, MST: 1x PBS pH 7.4, 0.05% Tween-20, 25 C. In general terms: Mobility shift assays separate free from complexed probe on a gel.
Data set [2] concerns T1, BetI2 (Ruegeria pomeroyi DSS-3), ORF:6e67dd5c.
T1 sequence: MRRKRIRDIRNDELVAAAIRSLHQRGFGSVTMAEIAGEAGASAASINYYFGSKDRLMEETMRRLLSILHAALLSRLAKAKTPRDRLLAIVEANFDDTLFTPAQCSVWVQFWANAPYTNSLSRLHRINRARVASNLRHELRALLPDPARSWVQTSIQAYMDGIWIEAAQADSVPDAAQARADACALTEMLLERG
Put plainly: EMSA. To be noted: EMSA: 2 mM EDTA, 20 mM KCl, 0.5 mM DTT, 4% Ficoll-400, pH 8.0, 2 ug poly(dI-dC), 20 uL, protein 0-28 uM; MST: 1x PBS pH 7.4, 0.05% Tween-20, 25 C.

The target in a further data set is T2, BetI2 (Ruegeria pomeroyi, UniProt Q5LUG8).
T2 construct: gene betI; full length gene in pET28a(+), C-terminal His-tag, expressed in E. coli BL21(DE3), Ni-NTA and gel filtration; RED-Tris-NTA labelled for MST
T2 sequence (Q5LUG8 1-193): T1 sequence
Put plainly: microscale thermophoresis of BetI2 binding to DNA probes with or without choline. The following applies: effector; DNA probes P1 (betI2 box 1) and P2 (betI2 box 2); 1x PBS pH 7.4, 0.05% Tween-20, 25 C; labelled protein.

With IGR (MST probe), the negative-log Kd (pKd) in data set [1] (no choline stated) is 6.06.

In the case of “GGCCATATTGGCCAATCGGCCAAAGGGTTCAAGTTTAAAGGATTATCGAAAAACTTGAACGACTGTTCAAGTTTTGGTTCTTTTGATCAGGTTATTGTGCTAATTTCCCGCATCATTCGACCCGGCCCGGAGGAGAGGGCGGGCGTGAACCCAGGGAGGGACCATGAT (double strand) [IGR (EMSA probe)]”, the binding result in data set [2] was “binds”.

As for `C[N+](C)(C)CCO` [choline], the “microscale thermophoresis of BetI2 binding to DNA probes with or without choline” value at BetI2 is reported as “The affinities of BetI2 to the IGR probe variants with or without choline were determined”.

As for P2 (IGR variant, betI2 box 2 only), the binding signal (affinity relative to P1 with choline) in data set [1] was 0.5. Also, the binding signal in data set [1] (no choline, scale: reference for P1 without choline) turned out to be 1.

As for P1 (IGR variant, betI2 box 1 only), in data set [1] (choline), the binding signal (fold affinity of P1 over P2) turned out to be 2. Also, the binding signal (fold Kd of P1 over P2) in data set [1] (no choline) was 4.

Values taken from article PMC12442346, “Novel regulatory mechanism of choline-O-sulfate and choline catabolism by two BetIs in Alphaproteobacteria” (Applied and Environmental Microbiology, 2025).
